Target: the molecule itself
Test: SEC

B1: regulatory subunit of Thermotoga maritima acetohydroxyacid synthase (TmAHAS), TM0549 (natural protein)
chain: MTDQIREHLVSMLVHNKPGVMRKVANLFARRGFNISSITVGESETPGLSRLVIMVKGDDKTIEQIEKQAYKLVEVVKVTPIDPLPENRVEREMALIKVRFDEDKQEIFQLVEIFRGKIIDVSREGAIIEITGARSKVEAFINLLPQKQVEEIARTGIVAMNRWNVKEGEGF
- stoichiometry N: 2
